Biological target: FMRP (mouse cerebellum) (UniProt P35922)
Experiment: anti-FMRP IP, Kv1.2 blot, peptide competition
Details: reference: no peptide (control); sites S440,S441

Question: Which other: reduction of co-IP'd Kv1.2 does the source give for “Kv1.2 (from UniProt P63141) 250 μM PhosKv436-457 (pS440/pS441) peptide added” here?
Answer: Its other: reduction of co-IP'd Kv1.2 is 75%.

Source: article PMC7473840, “Identification of a molecular locus for normalizing dysregulated GABA release from interneurons in the Fragile X brain” (Molecular Psychiatry, 2018)
